In PMC8391104, “Molecular mechanism of Mad1 kinetochore targeting by phosphorylated Bub1” (EMBO Reports, 2021):
pKd: −log10 of the molar value.

Assays:
[1] = molecular target: Mad1 C-terminal domain (Mad1^CTD) homodimer, residues 597-718 (human) (UniProt Q9Y6D9); assay: ITC; Bub1^CD1 peptide (0.3-1.5 mM) titrated into Mad1 (30-100 µM) in the cell; 20°C; 20 mM HEPES pH 7.5, 100 mM NaCl, 1 mM TCEP; single-site model; stoichiometry counted on dimeric Mad1^CTD
[2] = molecular target: Mad1 C-terminal domain (Mad1^CTD) homodimer, residues 597-718 (human) (UniProt Q9Y6D9); assay: crystal structure; co-crystallisation of Mad1^CTD (0.35 mM) with Bub1^CD1 peptide at 2.5 mM in 5% DMSO (or 5 mM in 10% DMSO); 10% isopropanol, 0.1 M Na HEPES pH 7.5, 20% PEG 4000; 21°C
[3] = molecular target: Mad1 C-terminal domain (Mad1^CTD) homodimer, residues 597-718 (human) (UniProt Q9Y6D9); assay: NMR titration; 1H,15N 2D HSQC of 15N-labelled Mad1^CTD with unlabelled peptide added (dimer to peptide 1:0.5 to 1:4); 50 mM HEPES pH 7.0, 100 mM NaCl, 2 mM TCEP, 0.02% NaN3, 298 K
[4] = molecular target: Mad1 C-terminal domain (Mad1^CTD) homodimer, residues 597-718 (human) (UniProt Q9Y6D9); assay: NMR titration; 31P 1D spectra of phosphorylated Bub1^CD1 peptide with Mad1^CTD dimer at 1:1 and 1:2 dimer to peptide, around 0.25 to 0.5 mM of each; 50 mM HEPES pH 7.0, 100 mM NaCl, 2 mM TCEP, 0.02% NaN3, 298 K
Mad1 CTD, 597-718 = Mad1 CTD, 597-718 (UniProt Q9Y6D9); assay: 1H,15N HSQC titration of 15N-Mad1CTD; conditions: reference: non-phosphorylated peptide; sites S459,T461

Sequence of Mad1 C-terminal domain (Mad1^CTD) homodimer, residues 597-718 (human) (Q9Y6D9 597-718): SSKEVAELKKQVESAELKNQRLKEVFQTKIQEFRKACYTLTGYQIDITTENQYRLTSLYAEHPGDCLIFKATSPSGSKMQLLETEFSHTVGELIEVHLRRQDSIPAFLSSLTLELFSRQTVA

| Substance | pKd [1] | stoichiometry N (peptides per Mad1^CTD homodimer) [2] | stoichiometry N (peptide per Mad1^CTD dimer) [3] | stoichiometry N (peptide per Mad1^CTD dimer) [4] | stoichiometry N (peptide per Mad1 dimer) [1] | binding against the reference (Mad1 CTD, 597-718) |
| --- | --- | --- | --- | --- | --- | --- |
| singly phosphorylated Bub1^CD1 peptide (pThr461) | 5.48 |  |  |  |  |  |
| doubly phosphorylated Bub1^CD1 peptide (pSer459-pThr461) | 5.57 | 2 | 1 | 1 | 1 |  |
| Bub1 CD1, 455-479 (from UniProt O43683) phosphorylated peptide |  |  |  |  |  | gained |
